The target in one data set is T1, RcsB Q185A (Salmonella enterica serovar Typhimurium, UniProt P58663 1-210, Q185A).
T1 sequence: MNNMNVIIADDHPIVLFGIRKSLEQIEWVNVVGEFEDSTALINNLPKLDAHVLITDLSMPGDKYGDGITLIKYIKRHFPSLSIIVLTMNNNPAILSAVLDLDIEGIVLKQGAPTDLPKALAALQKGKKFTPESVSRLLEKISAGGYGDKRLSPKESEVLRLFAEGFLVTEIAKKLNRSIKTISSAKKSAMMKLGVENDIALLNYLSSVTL
Nature of the data set: EMSA.

The target in the next data set is T2, RcsB K180A (Salmonella enterica serovar Typhimurium, UniProt P58663 1-210, K180A).
T2 sequence: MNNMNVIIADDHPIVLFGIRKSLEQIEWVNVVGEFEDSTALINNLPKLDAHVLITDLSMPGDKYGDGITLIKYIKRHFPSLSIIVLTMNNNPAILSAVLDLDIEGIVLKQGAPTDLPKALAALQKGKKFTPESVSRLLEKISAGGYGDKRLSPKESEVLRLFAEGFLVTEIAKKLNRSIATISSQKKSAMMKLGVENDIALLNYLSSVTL
Nature of the data set: EMSA.

For data set [1], the target named is T3, RcsB WT (Salmonella enterica serovar Typhimurium, UniProt P58663 1-210).
T3 sequence: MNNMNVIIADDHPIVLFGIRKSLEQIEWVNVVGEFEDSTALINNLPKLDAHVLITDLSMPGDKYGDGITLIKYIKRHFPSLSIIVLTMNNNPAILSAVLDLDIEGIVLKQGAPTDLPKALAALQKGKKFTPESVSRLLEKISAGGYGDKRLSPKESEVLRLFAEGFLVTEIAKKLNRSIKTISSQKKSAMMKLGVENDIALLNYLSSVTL
Nature of the data set: EMSA. Background: Mobility shift assays separate free from complexed probe on a gel.

The target of a further data set is T4, RcsB A93D (Salmonella enterica serovar Typhimurium, UniProt P58663 1-210, A93D).
T4 sequence: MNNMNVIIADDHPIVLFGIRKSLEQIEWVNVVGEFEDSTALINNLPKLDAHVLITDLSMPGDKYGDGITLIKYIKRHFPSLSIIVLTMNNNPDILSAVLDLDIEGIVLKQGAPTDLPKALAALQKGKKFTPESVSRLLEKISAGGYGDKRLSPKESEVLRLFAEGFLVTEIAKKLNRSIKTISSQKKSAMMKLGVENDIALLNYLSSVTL
As to the kind of experiment: EMSA.

A further data set concerns the target T5, RcsB H12A (Salmonella enterica serovar Typhimurium, UniProt P58663 1-210, H12A).
T5 sequence: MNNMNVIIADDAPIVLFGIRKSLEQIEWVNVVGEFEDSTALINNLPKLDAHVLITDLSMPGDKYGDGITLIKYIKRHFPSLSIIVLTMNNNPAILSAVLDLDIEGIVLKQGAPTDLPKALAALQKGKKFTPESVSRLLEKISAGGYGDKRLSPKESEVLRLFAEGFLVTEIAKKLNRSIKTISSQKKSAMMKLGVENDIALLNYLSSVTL
As to the kind of experiment: EMSA.

The target of a further data set is T6, RcsB L202F (Salmonella enterica serovar Typhimurium, UniProt P58663 1-210, L202F).
T6 sequence: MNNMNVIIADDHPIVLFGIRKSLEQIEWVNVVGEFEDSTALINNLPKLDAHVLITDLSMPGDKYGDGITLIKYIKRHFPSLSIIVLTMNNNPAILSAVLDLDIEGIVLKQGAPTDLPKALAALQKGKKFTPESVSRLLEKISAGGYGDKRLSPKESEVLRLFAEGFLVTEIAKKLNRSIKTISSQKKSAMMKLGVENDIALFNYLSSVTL
As to the kind of experiment: EMSA.

A further data set addresses T7, RcsB D56A (Salmonella enterica serovar Typhimurium, UniProt P58663 1-210, D56A).
T7 sequence: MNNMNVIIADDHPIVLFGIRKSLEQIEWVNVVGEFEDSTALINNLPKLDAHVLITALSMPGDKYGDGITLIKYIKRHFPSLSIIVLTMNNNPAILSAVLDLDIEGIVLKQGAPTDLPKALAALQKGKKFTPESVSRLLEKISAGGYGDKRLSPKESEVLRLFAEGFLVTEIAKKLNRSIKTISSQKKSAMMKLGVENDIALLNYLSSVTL
As to the kind of experiment: EMSA.

For another data set, the target named is T8, RcsB L202D (Salmonella enterica serovar Typhimurium, UniProt P58663 1-210, L202D).
T8 sequence: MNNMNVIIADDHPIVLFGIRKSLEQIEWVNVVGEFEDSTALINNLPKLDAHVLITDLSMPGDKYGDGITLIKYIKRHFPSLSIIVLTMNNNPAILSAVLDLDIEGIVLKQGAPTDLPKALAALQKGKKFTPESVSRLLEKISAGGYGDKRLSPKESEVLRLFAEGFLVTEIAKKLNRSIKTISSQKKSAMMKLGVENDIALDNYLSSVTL
As to the kind of experiment: EMSA.

Data set [2] addresses T3, RcsB WT. Nature of the data set: EMSA. The source holds these as a separate data set.
Another data set deals with T9, RcsB M88A (Salmonella enterica serovar Typhimurium, UniProt P58663 1-210, M88A).
T9 sequence: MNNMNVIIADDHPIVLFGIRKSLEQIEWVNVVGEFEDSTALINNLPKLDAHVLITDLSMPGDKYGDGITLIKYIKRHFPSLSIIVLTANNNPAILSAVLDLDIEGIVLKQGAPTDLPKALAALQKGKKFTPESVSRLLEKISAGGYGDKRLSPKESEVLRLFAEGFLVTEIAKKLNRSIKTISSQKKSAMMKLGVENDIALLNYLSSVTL
As to the kind of experiment: EMSA.

Data set [3] deals with the molecule itself. As to the kind of experiment: crystal structure.
The data set “SEC” concerns the molecule itself. As to the kind of experiment: SEC. (In gel filtration, larger molecules generally elute earlier.)
Data set [4] concerns the molecule itself. Nature of the data set: crystal structure. The source holds these as a separate data set.

“And” between values parts separate entries of the source, which are not always exact repeats. Equal entries are not always repeated. Where two headings read alike, the source gives them in different places.

B1: rcsA promoter (dsDNA)
DNA 1: CCTGTTTTACTAAGGTTTATCCGAAAATA
DNA 2: TATTTTCGGATAAACCTTAGTAAAACAGG
On to B1, for which the binding result in the data set with RcsB Q185A was “no binding”; in the data set with RcsB K180A, “no binding”; in the data set with RcsB WT [1], “binds”; with RcsB A93D, “no binding”.

B2: P1flhDC (dsDNA)
DNA 1: CGTCGAATTAGGAAAAATCTTAGGCA
DNA 2: TGCCTAAGATTTTTCCTAATTCGACG
For the molecule B2, the binding result with RcsB Q185A is given as “no binding”; with RcsB H12A, “no binding”; in the data set with RcsB L202F, “binds”; with RcsB K180A it was “no binding”; with RcsB D56A it was “no binding”; in the data set with RcsB L202D, “no binding”. Moreover, the binding result is recorded as “binds” with RcsB WT [2], “binds” with RcsB M88A and “no binding” in the data set with RcsB A93D.

B3: RcsB from Salmonella enterica serovar Typhimurium (residues 1-210), wild type (natural protein, UniProt P58663 1-210, looked up)
chain: MNNMNVIIADDHPIVLFGIRKSLEQIEWVNVVGEFEDSTALINNLPKLDAHVLITDLSMPGDKYGDGITLIKYIKRHFPSLSIIVLTMNNNPAILSAVLDLDIEGIVLKQGAPTDLPKALAALQKGKKFTPESVSRLLEKISAGGYGDKRLSPKESEVLRLFAEGFLVTEIAKKLNRSIKTISSQKKSAMMKLGVENDIALLNYLSSVTL
A word on the stoichiometry N: it is the number of molecules, sites or subunits per partner or assembly. As to B3, the “stoichiometry N” value in the data set “crystal structure [3]” turned out to be 2.

B4: RcsB M88A variant, incubated with acetylphosphate (natural protein, Salmonella enterica serovar Typhimurium, UniProt P58663 1-210, looked up)
chain: MNNMNVIIADDHPIVLFGIRKSLEQIEWVNVVGEFEDSTALINNLPKLDAHVLITDLSMPGDKYGDGITLIKYIKRHFPSLSIIVLTANNNPAILSAVLDLDIEGIVLKQGAPTDLPKALAALQKGKKFTPESVSRLLEKISAGGYGDKRLSPKESEVLRLFAEGFLVTEIAKKLNRSIKTISSQKKSAMMKLGVENDIALLNYLSSVTL
modifications: phosphorylated (D56) by incubation with acetylphosphate; higher level than the WT
As for B4, the binding result in “SEC” is given as “binds”.

B5: RcsB E170A variant, incubated with acetylphosphate (natural protein, Salmonella enterica serovar Typhimurium, UniProt P58663 1-210, looked up)
chain: MNNMNVIIADDHPIVLFGIRKSLEQIEWVNVVGEFEDSTALINNLPKLDAHVLITDLSMPGDKYGDGITLIKYIKRHFPSLSIIVLTMNNNPAILSAVLDLDIEGIVLKQGAPTDLPKALAALQKGKKFTPESVSRLLEKISAGGYGDKRLSPKESEVLRLFAEGFLVTAIAKKLNRSIKTISSQKKSAMMKLGVENDIALLNYLSSVTL
modifications: phosphorylated (D56) by incubation with acetylphosphate; reduced level against the WT
Regarding B5, the binding result in the data set “SEC” was “binds”.

B6: Phosphorylated RcsB from S. Typhimurium (wild type incubated with acetylphosphate) (natural protein, Salmonella enterica serovar Typhimurium, UniProt P58663 1-210, looked up)
chain: MNNMNVIIADDHPIVLFGIRKSLEQIEWVNVVGEFEDSTALINNLPKLDAHVLITDLSMPGDKYGDGITLIKYIKRHFPSLSIIVLTMNNNPAILSAVLDLDIEGIVLKQGAPTDLPKALAALQKGKKFTPESVSRLLEKISAGGYGDKRLSPKESEVLRLFAEGFLVTEIAKKLNRSIKTISSQKKSAMMKLGVENDIALLNYLSSVTL
modifications: phosphorylated at D56 by incubation with acetylphosphate (AcP)
B6: the “stoichiometry N” value in the data set “SEC” was 2.

B7: RcsB S207C variant (natural protein, Salmonella enterica serovar Typhimurium, UniProt P58663 1-210, looked up)
chain: MNNMNVIIADDHPIVLFGIRKSLEQIEWVNVVGEFEDSTALINNLPKLDAHVLITDLSMPGDKYGDGITLIKYIKRHFPSLSIIVLTMNNNPAILSAVLDLDIEGIVLKQGAPTDLPKALAALQKGKKFTPESVSRLLEKISAGGYGDKRLSPKESEVLRLFAEGFLVTEIAKKLNRSIKTISSQKKSAMMKLGVENDIALLNYLSCVTL
As to B7, the “stoichiometry N” value in “crystal structure [4]” is 2 and 6.

Values taken from publication PMC5758874 (Nucleic Acids Research, 2017).
